Experiment [1] deals with T1, human FRα on cells (human, UniProt P15328 25-234).
T1 construct: whole, on cells; also called FOLR1; FRα on transfected HEK293-6e or CHO-S cells
Put plainly: flow cytometry on IGROV-1 cells (endogenous FRα), apparent Kd.

Experiment [2] has as its target T1, human FRα on cells. Put plainly: cell-based or functional assay.

T1 sequence (P15328 25-234): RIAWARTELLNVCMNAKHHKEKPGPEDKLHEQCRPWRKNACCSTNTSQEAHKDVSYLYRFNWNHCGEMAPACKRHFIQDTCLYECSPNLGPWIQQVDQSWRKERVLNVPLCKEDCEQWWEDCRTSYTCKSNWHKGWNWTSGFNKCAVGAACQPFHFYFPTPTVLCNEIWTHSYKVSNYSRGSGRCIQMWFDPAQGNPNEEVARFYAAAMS

B1: mirvetuximab (v17716) (antibody, V domains shown)
VH: QVQLVQSGAEVVKPGASVKISCKASGYTFTGYFMNWVKQSPGQSLEWIGRIHPYDGDTFYNQKFQGKATLTVDKSSNTAHMELLSLTSEDFAVYYCTRYDGSRAMDYWGQGTTVTVSS
VL: DIVLTQSPLSLAVSLGQPAIISCKASQSVSFAGTSLMHWYHQKPGQQPRLLIYRASNLEAGVPDRFSGSGSKTDFTLTISPVEAEDAATYYCQQSREYPYTFGGGTKLEIK
For B1, the Kd in the experiment with human FRα on cells [1] came to 0.69 nM. In addition, the “internalized fluorescence relative to v30384, 25 nM, 5-hour incubation, IGROV-1 cells” value in the experiment with human FRα on cells [2] came out at 0.5 fold.

For the origin of these results see patent EP4499697A1 (dated 2025).
